Patent publication US9296810 (Novartis, dated 2016)

B1: SEQ ID NO 7 (designed binder)
chain: VSDVPRDLEVVAATPTSLLISWDAPAVTVRYYRITYGKTEGHRHSHEFTVPGSKSTATISGLKHGDDYTITVYAVTGRGDSPASSKPISINYRMEK
B2: SEQ ID NO 9 (designed binder)
chain: VSDVPRDLEVVAATPTSLLISWDAPAVTVRYYRITYGQLDKKHHDAEFTVPGSKSTATITRLKRGRDYTITVYAVTGRGDSPASSKPISINYSPER
B3: SEQ ID NO 10 (designed binder)
chain: VSDVPRDLEVVAATPTSLLISWDAPAVTVRYYRITYGKTGHKSSDHEFTVPGSKSTATIGGMKGGVDYTITVYAVTGRGDSPASSKPISINYRFER
B4: SEQ ID NO 11 (designed binder)
chain: VSDVPRDLEVVAATPTSLLISWDAPAVTVRYYRITYGKKDRASHLKEFTVPGSKSTATIGHIKGGYDYTITVYAVTGRGDSPASSKPISINYSGEP
B5: SEQ ID NO 13 (designed binder)
chain: VSDVPRDLEVVAATPTSLLISWDAPAVTVRYYRITYGTSVDDRKLREFTVPGSKSTATISRLKRGRDYTITVYAVTGRGDSPASSKPISINYRAEN
B6: SEQ ID NO 15 (designed binder)
chain: VSDVPRDLEVVAATPTSLLISWDAPAVTVRYYRITYGSRASHRKLTEFTVPGSKSTATISGLKTGRDYTITVYAVTGRGDSPASSKPISINYRTEH
B7: SEQ ID NO 14 (designed binder)
chain: VSDVPRDLEVVAATPTSLLISWDAPAVTVRYYRITYGVLSSTKHLKEFTVPGSKSTATISGLKLGRDYTITVYAVTGRGDSPASSKPISINYRMES
B8: SEQ ID NO 12 (designed binder)
chain: VSDVPRDLEVVAATPTSLLISWDAPAVTVRYYRITYGRTKGKSKLKEFTVPGSKSTATIPGLKQGEDYTITVYAVTGRGDSPASSKPISINYMFER
B9: SEQ ID NO 76 (designed binder)
chain: VSDVPRDLEVVAATPTSLLISWDAPAVTVRYYRITYGESSGRYRQEFTVPGSKSTATISRYPHGVDYTITVYAVTGRGESPASSKPISINYAKNV
B10: SEQ ID NO 73 (designed binder)
chain: VSDVPRDLEVVAATPTSLLISWDAPAVTVRYYRITYGERGYPGQEFTVPGSKSTATISEYSHSVDYTITVYAVTGRGESPASSKPISINYAQYQ
B11: SEQ ID NO 86 (designed binder)
chain: VSDVPRDLEVVAATPTSLLISWDAPAVTVRYYRITYGELPSQGRQEFTVPGSKSTATISYRRELVDYTITVYAVTGRGESPASSKPISINYGSSY
B12: SEQ ID NO 83 (designed binder)
chain: VSDVPRDLEVVAATPTSLLISWDAPAVTVRYYRITYGEAHEYYYQEFTVPGSKSTATISRSSSSVDYTITVYAVTGRGESPASSKPISINYYGRY
B13: SEQ ID NO 67 (designed binder)
chain: VSDVPRDLEVVAATPTSLLISWDAPAVTVRYYRITYGEYYARPEYQEFTVPGSKSTATISYYEPEVDYTITVYAVTGRGESPASSKPISINYRSYP
B14: SEQ ID NO 72 (designed binder)
chain: VSDVPRDLEVVAATPTSLLISWDAPAVTVRYYRITYGERGGYSSQEFTVPGSKSTATISSRYRQVDYTITVYAVTGRGESPASSKPISINYQSYS
B15: SEQ ID NO 65 (designed binder)
chain: VSDVPRDLEVVAATPTSLLISWDAPAVTVRYYRITYGERLREGGSQEFTVPGSKSTATISRAGERVDYTITVYAVTGRGESPASSKPISINYAQYP
B16: SEQ ID NO 58 (designed binder)
chain: VSDVPRDLEVVAATPTSLLISWDAPAVTVRYYRITYGESSHGRSQEFTVPGSKSTATISSSSSRVDYTITVYAVTGRGESPASSKPISINYGYRG
B17: SEQ ID NO 59 (designed binder)
chain: VSDVPRDLEVVAATPTSLLISWDAPAVTVRYYRITYGEYGYSRSQEFTVPGSKSTATISYSSPRVDYTITVYAVTGRGESPASSKPISINYGSRY
B18: SEQ ID NO 75 (designed binder)
chain: VSDVPRDLEVVAATPTSLLISWDAPAVTVRYYRITYGEYGGSQAQEFTVPGSKSTATISREYGSVDYTITVYAVTGRGESPASSKPISINYALGE
B19: SEQ ID NO 62 (designed binder)
chain: VSDVPRDLEVVAATPTSLLISWDAPAVTVRYYRITYGEAASSRLRQEFTVPGSKSTATISSYSGLVDYTITVYAVTGRGESPASSKPISINYYSSY
B20: SEQ ID NO 74 (designed binder)
chain: VSDVPRDLEVVAATPTSLLISWDAPAVTVRYYRITYGEYEPYGSQYQEFTVPGSKSTATISERQHAVDYTITVYAVTGRGESPASSKPISINYRRYE
B21: SEQ ID NO 70 (designed binder)
chain: VSDVPRDLEVVAATPTSLLISWDAPAVTVRYYRITYGESHQGLSYQEFTVPGSKSTATISPGSSSVDYTITVYAVTGRGESPASSKPISINYRYYR
B22: SEQ ID NO 84 (designed binder)
chain: VSDVPRDLEVVAATPTSLLISWDAPAVTVRYYRITYGEAGYSGGQEFTVPGSKSTATISERAEYVDYTITVYAVTGRGESPASSKPISINYERRY
B23: SEQ ID NO 85 (designed binder)
chain: VSDVPRDLEVVAATPTSLLISWDAPAVTVRYYRITYGELSRSGSQEFTVPGSKSTATISGSYGYVDYTITVYAVTGRGESPASSKPISINYEQSY
B24: SEQ ID NO 63 (designed binder)
chain: VSDVPRDLEVVAATPTSLLISWDAPAVTVRYYRITYGERERQHGYQEFTVPGSKSTATISRYRRRVDYTITVYAVTGRGESPASSKPISINYEPGY
B25: SEQ ID NO 71 (designed binder)
chain: VSDVPRDLEVVAATPTSLLISWDAPAVTVRYYRITYGERGSGLGYQEFTVPGSKSTATISSRAYRVDYTITVYAVTGRGESPASSKPISINYALYE
B26: SEQ ID NO 78 (designed binder)
chain: VSDVPRDLEVVAATPTSLLISWDAPAVTVRYYRITYGEQRARSRQEFTVPGSKSTATISEQRRRVDYTITVYAVTGRGESPASSKPISINYRALL
B27: SEQ ID NO 64 (designed binder)
chain: VSDVPRDLEVVAATPTSLLISWDAPAVTVRYYRITYGERRSHRERQEFTVPGSKSTATISRRRRRVDYTITVYAVTGRGESPASSKPISINYSRRR
B28: SEQ ID NO 79 (designed binder)
chain: VSDVPRDLEVVAATPTSLLISWDAPAVTVRYYRITYGERRRRYGQEFTVPGSKSTATISSRSRGVDYTITVYAVTGRGESPASSKPISINYLYPY
B29: SEQ ID NO 60 (designed binder)
chain: VSDVPRDLEVVAATPTSLLISWDAPAVTVRYYRITYGEYRYAYAYGQEFTVPGSKSTATISRSSPRVDYTITVYAVTGRGESPASSKPISINYPRRY
B30: SEQ ID NO 69 (designed binder)
chain: VSDVPRDLEVVAATPTSLLISWDAPAVTVRYYRITYGEYRSSSYYQEFTVPGSKSTATISYPSERVDYTITVYAVTGRGESPASSKPISINYQSSA
B31: SEQ ID NO 56 (designed binder)
chain: VSDVPRDLEVVAATPTSLLISWDAPAVTVRYYRITYGEYLYHHGQEFTVPGSKSTATISYRSAPVDYTITVYAVTGRGESPASSKPISINYRHER
B32: SEQ ID NO 81 (designed binder)
chain: VSDVPRDLEVVAATPTSLLISWDAPAVTVRYYRITYGESHHYGPQEFTVPGSKSTATISLLGAHVDYTITVYAVTGRGESPASSKPISINYHGLY
B33: SEQ ID NO 61 (designed binder)
chain: VSDVPRDLEVVAATPTSLLISWDAPAVTVRYYRITYGEPRSEEGEQEFTVPGSKSTATISRRYSLVDYTITVYAVTGRGESPASSKPISINYYSSR
B34: SEQ ID NO 55 (designed binder)
chain: VSDVPRDLEVVAATPTSLLISWDAPAVTVRYYRITYGEGQGAGASQEFTVPGSKSTATISGAEPAVDYTITVYAVTGRGESPASSKPISINYGPRY
B35: SEQ ID NO 57 (designed binder)
chain: VSDVPRDLEVVAATPTSLLISWDAPAVTVRYYRITYGEGSLLYHSQEFTVPGSKSTATISYGPASVDYTITVYAVTGRGESPASSKPISINYRRRY
B36: SEQ ID NO 66 (designed binder)
chain: VSDVPRDLEVVAATPTSLLISWDAPAVTVRYYRITYGEYYRSYYQEFTVPGSKSTATISSYEPPVDYTITVYAVTGRGESPASSKPISINYRRYL
B37: SEQ ID NO 77 (designed binder)
chain: VSDVPRDLEVVAATPTSLLISWDAPAVTVRYYRITYGEYRRRARQEFTVPGSKSTATISEHEPLVDYTITVYAVTGRGESPASSKPISINYYSYY
B38: SEQ ID NO 80 (designed binder)
chain: VSDVPRDLEVVAATPTSLLISWDAPAVTVRYYRITYGESRRSYPQEFTVPGSKSTATISSSHRSVDYTITVYAVTGRGESPASSKPISINYRSYL

What follows are binders tested against Human Serum Albumin (HSA) (human, UniProt P02768 25-609) (assay: yeast display selection).
Sequence of Human Serum Albumin (HSA) (P02768 25-609 limits assumed): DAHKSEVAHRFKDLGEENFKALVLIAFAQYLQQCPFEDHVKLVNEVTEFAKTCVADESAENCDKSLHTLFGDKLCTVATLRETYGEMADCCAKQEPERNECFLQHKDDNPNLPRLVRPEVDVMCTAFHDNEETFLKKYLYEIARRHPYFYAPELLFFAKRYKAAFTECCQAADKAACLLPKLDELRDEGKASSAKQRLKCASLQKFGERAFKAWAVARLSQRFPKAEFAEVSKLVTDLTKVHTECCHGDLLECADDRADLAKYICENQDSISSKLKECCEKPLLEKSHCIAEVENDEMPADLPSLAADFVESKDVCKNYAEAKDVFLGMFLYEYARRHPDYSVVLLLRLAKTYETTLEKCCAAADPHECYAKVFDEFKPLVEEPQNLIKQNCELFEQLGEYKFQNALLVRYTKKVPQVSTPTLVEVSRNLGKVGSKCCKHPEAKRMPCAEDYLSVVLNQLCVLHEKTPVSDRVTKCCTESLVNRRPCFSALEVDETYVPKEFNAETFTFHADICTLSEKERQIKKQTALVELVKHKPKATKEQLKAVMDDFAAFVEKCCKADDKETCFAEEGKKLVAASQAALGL

Binder	binding result
B1	binds
B2	binds
B3	binds
B4	binds
B5	binds
B6	binds
B7	binds
B8	binds

The binders below were run against T1, hen egg white lysozyme (hen, UniProt P00698 19-147, biotinylated (HEL-b); sites not stated) (assay: yeast display selection).
T1 construct: also called lyzozyme; HEL-b (biotinylated)
T1 sequence (P00698 19-147 limits assumed): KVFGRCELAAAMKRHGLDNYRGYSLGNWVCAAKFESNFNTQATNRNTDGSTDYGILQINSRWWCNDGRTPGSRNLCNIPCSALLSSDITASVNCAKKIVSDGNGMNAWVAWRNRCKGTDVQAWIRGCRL

Binder	binding result
B9	binds
B10	binds
B11	binds
B12	binds
B13	binds
B14	binds
B15	binds
B16	binds
B17	binds
B18	binds
B19	binds
B20	binds
B21	binds
B22	binds
B23	binds
B24	binds
B25	binds
B26	binds
B27	binds
B28	binds
B29	binds
B30	binds
B31	binds
B32	binds
B33	binds
B34	binds
B35	binds
B36	binds
B37	binds
B38	binds
